In the nanobody polyreactivity screen of Harvey et al. (2022):

assay: yeast display, Sf9 membrane polyspecificity reagent, FACS + sequencing; frameworks hold sequencing errors
In short: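 In a synthetic yeast display library (Saccharomyces cerevisiae BJ5465), nanobody expression was induced with galactose for 36–48 hours. FACS gates were set low and high (top ~1%) using anti-HA fluorescence for expression and streptavidin fluorescence for binding of the Sf9 membrane reagent. Each polyreactivity label is drawn from the gate of origin.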

Q: For “QVQLVESGGGLFQAGGSLRLSCAASGRIFGYNAMAGYRQAPGKERELVAVITYSGGSTYYADSVKGRFTISRDNAKNTVYLQMKSLKPEDTAVYYCIARPIDRYSGSGKQWPDYNYWGQGTQFTVSS”, which “polyreactivity (PSR sort gate)” value is on record?
A: low polyreactivity

Q: For “QVQLVESGGGLFQAGGSLRLSCAASGRIFVFYAMGWYRQAPGKEMELVAAISKSVGPTYYADSVKGRFTISRDYAKNTVYLQMNSLKPEDTAVYYCNKRSASDLWPQYGYWGQGTQVTVSS”, which “polyreactivity (PSR sort gate)” value is on record?
A: low polyreactivity

Q: With “QVQLVESGGGLFQAGGSLRLSCAASGRIFYYNAMGWYRQAPGKEREFVAAITYRGGSTYYADSVKGRFTISRDNAKITVYLQMNSLKPEDTAVYYCAARSAWQVAPRGRTVAFDYWGQGTQVTVSS” as the sequence, how does the “polyreactivity (PSR sort gate)” value read?
A: high polyreactivity

Q: For “QVQLVESGGGLFQAGGSLRLSCAASGRTFDVYDMGWYRQAPGKERELVAAITWSGGSTYYADSVKGRFTISRDNAKNTVYLQMNSLKPEDTAVYYCAAGYYYFWTYDYWGQGTQVTVSS”, which “polyreactivity (PSR sort gate)” value is on record?
A: low polyreactivity

Q: With “QVQLVESGGGLFQAGGSLRLSCAASGRTFWAYAMGWYRQAPGKERELVAAITTSRGSTNYADSVKGRFTISRDNAKNTVYLQMNSLKPEDTAVYDCNADPTYHVVIGVGYWGQGTQVTVCS” as the sequence, how does the “polyreactivity (PSR sort gate)” value read?
A: low polyreactivity

Q: Which “polyreactivity (PSR sort gate)” value does the source give for “QVQLVESGGGLFQAGGSLRLSCAASGSIFFENAMGWYRQAPGKEREFVAASTWSAGGRTDYADSVKGRFTISRDNAKTTVYLQMNSLKPEDTAVYYCARYPTNILYIPVRGYTDMDYWGQGTQVTVSW” here?
A: low polyreactivity

Q: Which “polyreactivity (PSR sort gate)” value does the source give for “QVQLVESGGGLFQAGGSLRLSCAASGSIFGKYTMGWYRQAPGKERELVAGITYRAGSTYYADSVKGRFTISRDNAKNTVYLQMNSLKPEDTAVYYCAARFYFRWYYYGSYANYWGQGTQVTVSS” here?
A: high polyreactivity

Q: Which “polyreactivity (PSR sort gate)” value does the source give for “QVQLVESGGGLFQAGGSLRLSCAASGSIFSKYAMAWYRQAPGKERELVAAITLNGGSTYYADSVKGRFTISRDNAKNTVYLQMNSLNPEDTAVYYCAKSDRPWWGYYYQFDYWGQGTQVTVSS” here?
A: low polyreactivity

Q: Which “polyreactivity (PSR sort gate)” value does the source give for “QVQLVESGGGLFQAGGSLRLSCAASGSIFWSYDMGWYRQAPGKERELVATITSGDSTYYADSVKGRFTISRDNAKNTVYLQMNSLKPEDTAVYYCAAGTYYRRTYWHREYDYWGQGTQVTVSS” here?
A: low polyreactivity

Q: Which “polyreactivity (PSR sort gate)” value does the source give for “QVQLVESGGGLFQAGGSLRLSCAASGSTFGNNAMGWYRQAPGKERELVAAISRSGGNTYYADSVKGRFTISRDNAKNTVYLQMNSLKPEDTAVYYCAAGKLYAAGVYYLRRLYYWGQGTQVTVSS” here?
A: high polyreactivity

Q: Which “polyreactivity (PSR sort gate)” value does the source give for “QVQLVESGGGLFQAGGSLRLSCAASGSTFRFNAKGWYRQAPGKERQFVAAIRFTGGSTYYADSVKGRFTISRDNAKNTVYLQMNSLKPEDTAVYYCINADEYSTVEYDYWGQGTQVSVSS” here?
A: low polyreactivity

Q: Which “polyreactivity (PSR sort gate)” value does the source give for “QVQLVESGGGLFQAGGSLRLSCAASGSTFVYNDMGWYRKATGKERELVAYISTSGGSTYYADSVKGRFTISRDNAKNTVYLQMNSLKPEDTAVYYCNAKRSGPWFLHVPVYYWGQGTQVTVSS” here?
A: low polyreactivity

Q: With “QVQLVESGGGLFQAGGSLRLSCAASGSTFYNYAMGWYRQAPGIERELVAAISSGGSTNYADSVKGRFTISRDNAKYTVFLQMNSLKPEDSAVYYCARRHRVYASRNGHDYWGQGTQVTVSS” as the sequence, how does the “polyreactivity (PSR sort gate)” value read?
A: low polyreactivity

Q: Which “polyreactivity (PSR sort gate)” value does the source give for “QVQLVESGGGLFQAGGSLRLSCAASGSTFYSYAMGWYRKAPGKERELVAAISRNGGYTYYADSVKGRFTISRDNAKNTVYLQMNSLKPEDTAVYYCAALRYVHGYDYWGQGTQVTGSS” here?
A: high polyreactivity

Q: With “QVQLVESGGGLFQAGGSLRLSCAASGSTIQQYAMGWYRQAPGKEREFVAAISWRGGRTYYADSVKGRFTISRDNAKNTVYLQMNRLKPEDTAVYYCAVDPSIYRLSAYYYDYWGQGTQVTVSS” as the sequence, how does the “polyreactivity (PSR sort gate)” value read?
A: low polyreactivity

Q: For “QVQLVESGGGLFQAGGSLRLSCAATGRTIVIYAMRWYRQAPGKERELVAAISFSGDTAYYADSVKGRFTISRDNAKNTVYLQMNSLKPDHTAVYYCAAVTQPWSYYRRDYWGQGTQVTVSS”, which “polyreactivity (PSR sort gate)” value is on record?
A: high polyreactivity

Q: With “QVQLVESGGGLFQAGGSLRLSCAAYGRTFYVYALGWYRQAPGKEREFVAAITSSGGSTYYADSVKGRFTISRDNAKNTVYLQMNSLKPEDTAVYYCAADDWDWENDYWGQGTQVTVSS” as the sequence, how does the “polyreactivity (PSR sort gate)” value read?
A: low polyreactivity

Q: For “QVQLVESGGGLFQAGGSLRLSCAPSGHIFFYYTMGWYRPAPGKERELVAGITIGGSTNYADSVKGRFTISRDNAKNTVYLQMNSLKPEDTAVYYCNVVKYVYIYSYWESYYWGQGTQVTVSS”, which “polyreactivity (PSR sort gate)” value is on record?
A: low polyreactivity

Q: Which “polyreactivity (PSR sort gate)” value does the source give for “QVQLVESGGGLFQAGGSLRLSCAPSGRIFRYNAMGWYRQAPGKERELVASISGSGGSTYYADSVKGRFTISRDNAKNTVYLQMNSLTPEDTAVYYCAAQWRYQYPESLESYYWGQGTQVTVSS” here?
A: high polyreactivity

Q: With “QVQLVESGGGLFQARGSLRLSCAASGSTFGFYARGWYRQATGKERELVAASSRGGSTNYADSVKGRFTISRDNAKNTVYLQLNSLKPEDTAGYYCAKAYHATSDYWGQGTQVTVSS” as the sequence, how does the “polyreactivity (PSR sort gate)” value read?
A: low polyreactivity

Q: For “QVQLVESGGGLFQAVGSLRLSCAASGLFFIKYTMGWYRQAPGKERELFAVISGSGGSTYYADSVKGRFTISRDNAKNTVYLQMNSLKPEDTAVYYCAARSYALGYGGGYWGQGTQVTVSS”, which “polyreactivity (PSR sort gate)” value is on record?
A: high polyreactivity

Q: Which “polyreactivity (PSR sort gate)” value does the source give for “QVQLVESGGGLFQEGGSLRVSCAASGRIFIANAMGWYRQAPGKERELVAAISFSGGSTYYADSVKGRFTISRDNAKSTVYLQLNSLKPEDTAVYFCIKVGIRYYYGYDYWGHGTQVTVSS” here?
A: high polyreactivity

Q: For “QVQLVESGGGLGQAGCSLRLSCAASGSTFAVYAMGWYRQAPGKERELVATITGSGGSTYYADSVKGRFTISRDNAKNPVYLQMNSLKPEDNAVYYCAAEVVAWSLYEDFKTYDYWGQGTQVTVSS”, which “polyreactivity (PSR sort gate)” value is on record?
A: low polyreactivity

Q: For “QVQLVESGGGLGQAGGSLRLSCAASGFILRYNAMGWYRQAPGKERELVAAISYTGDRTYYADSVKGRFTISRDNAKNTVYLQMNSLKPEDTAVYYCKAGKGQRALVRIGSKLMYYWGHGTQVTVSS”, which “polyreactivity (PSR sort gate)” value is on record?
A: high polyreactivity

Q: Which “polyreactivity (PSR sort gate)” value does the source give for “QVQLVESGGGLGQAGGSLRLSCAASGITFGDYAMGWYIQAPGKERELVAAISTSGVRTYYADSVKGRFTISRDNAKNTVYLQMNSLKTEDTAVYYCAAKYYGEMYYWGQVTQVTVSS” here?
A: low polyreactivity

Q: With “QVQLVESGGGLGQAGGSLRLSCAASGLIFSPYDMGWYRQAPGKERELVGAISNGDSTNYADSVKGRFTISRDNAKNTVYLQMNSLKAEDTAVYYCNAAIPSWLEYEYWGQGTQVTVSS” as the sequence, how does the “polyreactivity (PSR sort gate)” value read?
A: low polyreactivity

Q: For “QVQLVESGGGLGQAGGSLRLSCAASGLTFLDYAMGWSRQAPGKERELVAAITSGGSTNYADSVKGRFTISRDKAKNTVYLQMNSLKPEDTAVYYFATDLEVSAYDYWGQGTQVTVSS”, which “polyreactivity (PSR sort gate)” value is on record?
A: low polyreactivity

Q: With “QVQLVESGGGLGQAGGSLRLSCAASGNTFWAYAMGWYRQAPGKERELVAGISSRGSRTYFADSVKGRFTISRDNAKNTVYLQMNSLKPEDSAVDFCNALRTPPGYYPPFDYWGEGTQVTVSS” as the sequence, how does the “polyreactivity (PSR sort gate)” value read?
A: high polyreactivity

Q: Which “polyreactivity (PSR sort gate)” value does the source give for “QVQLVESGGGLGQAGGSLRLSCAASGRIFGYYAMGGYRQAPGKARELVAGIDWSGGNTYYADSVKGRFTISRDNAKNTVYLQMNSLKPEDTAVYYCAKYKGRGDSGYDSWGQGTQVTVSS” here?
A: low polyreactivity

Q: Which “polyreactivity (PSR sort gate)” value does the source give for “QVQLVESGGGLGQAGGSLRLSCAASGRIFIDYAMGWYRQAPGKERELVAAITYSTGGTYYGDSVKGRFTISRDNAKNTVYLQMNSLKPEDTAVYYCNATYVWPGRRRDGYWGQGTQVTVSS” here?
A: low polyreactivity

Q: Which “polyreactivity (PSR sort gate)” value does the source give for “QVQLVESGGGLGQAGGSLRLSCAASGRIFVDYAMGWYRQAPGKERELVAAINSGGSTNYADSVKGRFTISRDNAKNTVNLQMNSQKPEDTAVYYCNKDTLVYGYVQDYEYWGQGTQVTVSS” here?
A: low polyreactivity

Q: Which “polyreactivity (PSR sort gate)” value does the source give for “QVQLVESGGGLGQAGGSLRLSCAASGRTFRLYAMGCYRQAPGKERELVASITSTGRTYYADSVKGRFTISRDNAKNTVYLQMNSLKPEDTAVYYCNAVALSNCEYDYWGQGTQVTVSS” here?
A: high polyreactivity

Q: With “QVQLVESGGGLGQAGGSLRLSCAASGRTFYIYAMGWYRQAPGKERELVAANTWSTGGTYYADSVKGRFTISRDNAKNTVYLQMNSLKPEDTAVYYCAAGYDYKSTRHYYWGQGTQVTVSS” as the sequence, how does the “polyreactivity (PSR sort gate)” value read?
A: high polyreactivity

Q: With “QVQLVESGGGLGQAGGSLRLSCAASGRTLGIYAMGWYRPAPGTERELVAAITNGDSTHYADSVKGRFTISRDNAKNTVYLQMNSLKPEDTAVYYCAAEDHYEGYGGYYWGQGTQVTVSS” as the sequence, how does the “polyreactivity (PSR sort gate)” value read?
A: low polyreactivity

Q: Which “polyreactivity (PSR sort gate)” value does the source give for “QVQLVESGGGLGQAGGSLRLSCAASGSIFERNAMGWYRQAPGKERELVAAISSSGVSTYYADSVKGRFTISRDNAKNTVYLQMNSLKPEDTAVYYCNAVWRLRVRYGYWGQGTQVTVSS” here?
A: high polyreactivity

Q: Which “polyreactivity (PSR sort gate)” value does the source give for “QVQLVESGGGLGQAGGSLRLSCAASGSIFGRYAMGWYRQAPGKERELVTVITSGGSTNYADSVKGRFTISRDNAKNTVYLQMNSVKPEDTAVFYCAVRPYELHRLADQHGGDDYWGQGTQVTVSS” here?
A: low polyreactivity

Q: Which “polyreactivity (PSR sort gate)” value does the source give for “QVQLVESGGGLGQAGGSLRLSCAASGSIFHPYAMGWYRQAPGKERELVASITSSGGSTYYADSVKGRFTISRDTAKNTVYLQMNSMKPEDTAVYYCNAQFLVYFYWYSTTAYIMYYWGQGTQVTVSS” here?
A: low polyreactivity

Q: With “QVQLVESGGGLGQAGGSLRLSCAASGSIFYSYAMGSYRQATGKERELVAAINWSGGSTYYADSVKGRFTISRDNAKNTVSLLMNSLKPEDTAVYYCAAGPGDSGDDYWGQCTQVTVSS” as the sequence, how does the “polyreactivity (PSR sort gate)” value read?
A: low polyreactivity

Q: With “QVQLVESGGGLGQAGGSLRLSCAASGSTFYKYAMGWYRQAPGKERELVASITWSGTSTYYADSVKGRFTISRDNQKNTVFLQMNSLKAEDTAVYYCAAPKLDDYDYWGQGTQVTVSS” as the sequence, how does the “polyreactivity (PSR sort gate)” value read?
A: low polyreactivity

Q: Which “polyreactivity (PSR sort gate)” value does the source give for “QVQLVESGGGLGQAGGSLRLSCAASGYIFPIYAMGWYRQAPGKERELVAAITESGGSTYYADSVKGRFTISRDNAKNTVYLQMNSLKQEDTAVYYCAKEVVKHPRGKLDYWGQGTQVTLSS” here?
A: low polyreactivity

Q: For “QVQLVESGGGLGQAGGSLRLSCAASGYTFARNAMGWYRQAPGKEREMVAAINWSGTNTYYADSVKGRFTISRDNAKNTVYLQMNSLKPEDTAVYYCAKDLYFSGYEFDYWGQGTQVTVSS”, which “polyreactivity (PSR sort gate)” value is on record?
A: low polyreactivity

Q: With “QVQLVESGGGLGQAGGSLRLSSAASGRTFVFYAMGWYIQAPGKERELVAAITSSGGRTYYADSVKGRFTISRDNAKNTVYLQMNSLKPEDTAVYYCAAPYYPYKYDSWGQGTQVTGSS” as the sequence, how does the “polyreactivity (PSR sort gate)” value read?
A: low polyreactivity

Q: For “QVQLVESGGGLGQAVGRLRLSCAASGSTFDPNTMGWYRQAPGKERELVATITSVDSTNYADSVKGRFTISRDNAKNTVYLQMNSLKPEDTAVSYCNAAYGGVFFYAYDYWGQGTQVTVSS”, which “polyreactivity (PSR sort gate)” value is on record?
A: low polyreactivity
